These results are taken from US20060193771A1.

For test [1], the target named is human CD30, native, expressed on cells (human). The test can be described thus: cell-based or functional assay.
The target of test [2] is T1, recombinant soluble CD30 (sCD30) produced in E. coli (human).
T1 sequence: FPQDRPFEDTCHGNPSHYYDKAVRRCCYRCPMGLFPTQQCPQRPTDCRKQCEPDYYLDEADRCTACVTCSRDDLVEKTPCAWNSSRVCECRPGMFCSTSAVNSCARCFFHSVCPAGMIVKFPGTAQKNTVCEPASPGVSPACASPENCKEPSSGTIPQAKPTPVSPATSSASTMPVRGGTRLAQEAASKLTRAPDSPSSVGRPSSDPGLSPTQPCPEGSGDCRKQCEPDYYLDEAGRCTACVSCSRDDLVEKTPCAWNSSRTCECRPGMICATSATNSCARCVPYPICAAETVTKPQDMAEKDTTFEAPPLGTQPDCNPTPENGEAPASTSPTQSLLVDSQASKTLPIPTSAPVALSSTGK
The experiment in a line: SPR (BIAcore), sCD30 immobilized.

Test [3] has as its target human CD30, native, expressed on cells (human). The experiment in a line: competitive FACS on L540 cells, unlabeled MAb 2.5 µg/ml; competitor: biotin-HRS-4.
Test [4] has the same target. The experiment in a line: competitive FACS on L540 cells, unlabeled MAb 2.5 µg/ml; competitor: biotin-HeFi-I.
Test [5] has the same target. The test can be described thus: competitive FACS on L540 cells, unlabeled MAb 2.5 µg/ml; competitor: biotin-T6.
Test [6] concerns the target T1, recombinant soluble CD30 (sCD30) produced in E. coli (human). The test can be described thus: indirect ELISA, sCD30 coated.
For test [7], the target named is human CD30, native, expressed on cells (human). The experiment in a line: competitive FACS on L540 cells, unlabeled MAb 2.5 µg/ml; competitor: biotin-T14.
The target is the same in test [8]. The experiment in a line: FACS, L428 cells, MAb 5 µg/ml; HeFi-I is the control itself.
Test [9] has the same target. The experiment in a line: competitive FACS on L540 cells, unlabeled MAb 2.5 µg/ml; competitor: biotin-T24.
For test [10] the target is unchanged. The experiment in a line: competitive FACS on L540 cells, unlabeled MAb 2.5 µg/ml; competitor: biotin-T25.
Test [11] shares this target. The test can be described thus: FACS, L540 cells, MAb 5 µg/ml; HeFi-I is the control itself.
The target of test [12] is T1, recombinant soluble CD30 (sCD30) produced in E. coli (human). The experiment in a line: SPR (BIAcore), sCD30 immobilized; not corrected for bivalency.
Another test concerns the target T2, CD30-Fc (human).
T2 sequence: T1 sequence
The test can be described thus: affinity of the MAb; ELISA using CD30-Fc.

B1: CL2(scFv)-PE38 (scFv, V domains shown)
VH: EVQLKQSGTELVKPGASVKLSCKASGYTFTSYWMHWVKQRPGQGLEWIGNINPSNGGTNYNEKFKSKATLTIDKSSSTAYMQLSSLTSEDSAVYYCARRTETAQASPFAYWGQGTLVTVSS
VL: DIVMTQSHKFMSTSVGDRVSVTCKASQNVGTNVAWYQQKPGQSPKALIYSASTRYSGVPDRFTGSGSGTDFTLTISNVQSEDLAEYFCQQYNSYPFTFGSGTKLEIK
In the case of B1, in test [1], the IC50, cytotoxicity on A431 cells stably transfected with CD30 is 2.5 ng/mL. For the same molecule, in test [2], the Kd stood at 56 nM, the koff amounted to 0.0022 s⁻¹ and the kon came to 38000 M⁻¹ s⁻¹.

B2: HeFi-I MAb (antibody, V domains shown)
VH: EVKLVESGGGLVQPGGSLRLSCATSGFTFSDYYMNWVRQPPGKALEWLGFIRNKANGYTTEFSASVMGRFTISRDDSQSILYLQMNTLRAEDSATYYCARDPPYGNPHYYAMDYWGQGTSVTVSS
VL: DIVLTQSPASLAVSLGQRATISCRASKSVSASGYNYMHWYQQKAGQPPKLLIHLASNLESGVPARFSGSGSGTDFTLNIHPVEEEDASTYYCQHSGELPFTFGSGTKLEIK
B2: the inhibition of the binding of biotin-MAb (%) stood at 0% in [3]; 98% in test [4]; 0% in test [5]; 0% in test [7]; 33.4% in [9]; 8.4% in test [10]. The titer in ELISA in test [6] was determined as 105 mL/µg. Also, the relative reactivity in FACS (% of control) in test [8] and in [11] was 100 % of control throughout. Moreover, the figures for the Kd (in [12]; in the test with CD30-Fc (human)) were 7.8 nM and 2.4 nM, respectively. Moreover, the koff in test [12] was 0.00054 s⁻¹. Also, the kon in test [12] worked out at 72000 M⁻¹ s⁻¹.

B3: T7 MAb (antibody, V domains shown)
VH: QVQLQQSGAELVRPGSSVKISCKASGYTFSSYWMNWMKQRPGQGLEWIGQIYPGDDDTNYNGKFKGKATLTADKSSSTAYMQLSSLTSEDSAVYFCARRETGRGAWFTYWGQGTLVTVSA
VL: DIVLTQSPASLAVSLGQRATISCRASESLEYYGTTLMQWYQQKPGQPPKLLIYAASNVESGVPARFSGSGSGTDFSLNIHPVEEDDIAMYFCHQSRKVPSTFGGGTKLEIK
B3 displayed a Kd with CD30-Fc (human) of 3.5 nM.
